According to patent US6344546 (RHONE POULENC RORER, dated 2002):
One block for each binder: values may come before it.

Experiments:
[1] = target: T1, human flg (fms-like gene) fibroblast growth factor receptor (human, UniProt P11362 22-822); assay: Scatchard analysis of saturation binding to flg overexpressing cells, kFGF against bFGF
T1 construct: whole, on cells; Three-Ig-domain form, 150 kDa glycoprotein on transfected NIH 3T3 cells; also called flg26; NFlg26
Description: (§1) Fibronectin-coated 24 well dishes containing 1×10^5 cells/well were placed on ice, and the wells were rinsed twice with cold binding buffer (DMEM, 1 mg/ml BSA, 5 U/ml heparin, 50 mM Hepes, pH 7.4). […] Nonspecific binding was obtained using the same serial dilutions but in the presence of 100 fold molar excess of non-radioactive aFGF. After incubation, the cells were placed on ice and rinsed twice with ice cold binding buffer minus heparin and then solubilized in 0.3N NaOH 37° C., 15 minutes.
(§2) Equilibrium Binding Analysis of flg and bek Radioloabled with Acidic, Basic and k-fibroblast Growth Factors Acidic and basic FGF were radioiodinated and purified on heparin-Sepharose as described above. The dissociation constants of bek and flg for aFGF and bFGF were established by saturation binding analysis of the overexpressing cell lines with the iodinated ligands. Binding of both aFGF and bFGF to bek and flg was specific and saturable (FIG. 6A, inserts).

[2] = target: T1, human flg (fms-like gene) fibroblast …; assay: Scatchard analysis of [125I]kFGF saturation binding to flg26 cells
[3] = target: T2, human bek (bacterially expressed kinase) fibroblast growth factor receptor (human, UniProt P21802 22-821); assay: Scatchard analysis of [125I]kFGF saturation binding to bek13 cells
T2 construct: whole, on cells; Three-Ig-domain form, 135 kDa glycoprotein on transfected NIH 3T3 cells; Clone Nbek8 was used with aFGF and bFGF, clone NBek13 with kFGF; also called bek8; NBek8
T2 sequence (P21802 22-821): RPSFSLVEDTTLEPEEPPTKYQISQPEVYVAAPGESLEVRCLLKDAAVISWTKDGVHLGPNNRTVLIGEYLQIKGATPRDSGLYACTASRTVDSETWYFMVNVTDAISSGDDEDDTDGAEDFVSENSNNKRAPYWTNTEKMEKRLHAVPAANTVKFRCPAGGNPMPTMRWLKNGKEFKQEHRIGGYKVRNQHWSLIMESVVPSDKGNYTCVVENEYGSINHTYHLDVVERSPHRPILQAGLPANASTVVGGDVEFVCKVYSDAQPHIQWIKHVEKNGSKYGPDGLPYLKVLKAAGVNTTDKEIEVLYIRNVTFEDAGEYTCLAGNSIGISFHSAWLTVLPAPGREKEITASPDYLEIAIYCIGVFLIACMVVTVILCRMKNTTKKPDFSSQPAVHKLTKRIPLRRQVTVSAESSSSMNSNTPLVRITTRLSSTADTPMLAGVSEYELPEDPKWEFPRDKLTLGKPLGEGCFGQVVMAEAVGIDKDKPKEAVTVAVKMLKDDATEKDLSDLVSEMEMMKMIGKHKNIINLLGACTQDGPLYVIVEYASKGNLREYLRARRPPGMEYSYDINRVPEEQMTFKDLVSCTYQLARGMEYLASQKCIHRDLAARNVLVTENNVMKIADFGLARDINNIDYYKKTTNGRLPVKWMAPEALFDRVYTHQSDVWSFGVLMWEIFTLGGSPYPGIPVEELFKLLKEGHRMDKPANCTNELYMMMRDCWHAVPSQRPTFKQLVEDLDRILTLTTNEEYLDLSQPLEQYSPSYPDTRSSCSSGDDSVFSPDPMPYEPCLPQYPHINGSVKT

[4] = target: T2, human bek (bacterially expressed …); assay: Scatchard analysis of saturation binding, additional experiments
Description: as §1, §2

[5] = target: T2, human bek (bacterially expressed …); assay: saturation binding of [125I]aFGF to bek8 cells with excess unlabelled aFGF or bFGF
Description: (§3) The background counts in the presence of a 100 fold molar excess of either ligand was always less than 10% of the total cpm at each point. The scale on the Scatchard analysis is the same in each panel.
as §1
as §2, with “inserts). […] Scatchard, (*Ann. N.Y. Acad.” for “inserts).”

[6] = target: T1, human flg (fms-like gene) fibroblast …; assay: Scatchard analysis of [125I]aFGF saturation binding to flg overexpressing NIH 3T3 cells
Description: The scale on the Scatchard analysis is the same in each panel.
as §1, §2

[7] = target: T2, human bek (bacterially expressed …); assay: Scatchard analysis of [125I]aFGF saturation binding to bek overexpressing NIH 3T3 cells
Description: as §3, §1
as §2, with “inserts). […] Scatchard, (*Ann. N.Y. Acad.” for “inserts).”

[8] = target: T1, human flg (fms-like gene) fibroblast …; assay: saturation binding of [125I]aFGF to flg26 cells with excess unlabelled aFGF or bFGF
Description: as §3, §1
as §2, with “inserts). […] Scatchard, (*Ann. N.Y. Acad.” for “inserts).”

T1 sequence (P11362 22-822): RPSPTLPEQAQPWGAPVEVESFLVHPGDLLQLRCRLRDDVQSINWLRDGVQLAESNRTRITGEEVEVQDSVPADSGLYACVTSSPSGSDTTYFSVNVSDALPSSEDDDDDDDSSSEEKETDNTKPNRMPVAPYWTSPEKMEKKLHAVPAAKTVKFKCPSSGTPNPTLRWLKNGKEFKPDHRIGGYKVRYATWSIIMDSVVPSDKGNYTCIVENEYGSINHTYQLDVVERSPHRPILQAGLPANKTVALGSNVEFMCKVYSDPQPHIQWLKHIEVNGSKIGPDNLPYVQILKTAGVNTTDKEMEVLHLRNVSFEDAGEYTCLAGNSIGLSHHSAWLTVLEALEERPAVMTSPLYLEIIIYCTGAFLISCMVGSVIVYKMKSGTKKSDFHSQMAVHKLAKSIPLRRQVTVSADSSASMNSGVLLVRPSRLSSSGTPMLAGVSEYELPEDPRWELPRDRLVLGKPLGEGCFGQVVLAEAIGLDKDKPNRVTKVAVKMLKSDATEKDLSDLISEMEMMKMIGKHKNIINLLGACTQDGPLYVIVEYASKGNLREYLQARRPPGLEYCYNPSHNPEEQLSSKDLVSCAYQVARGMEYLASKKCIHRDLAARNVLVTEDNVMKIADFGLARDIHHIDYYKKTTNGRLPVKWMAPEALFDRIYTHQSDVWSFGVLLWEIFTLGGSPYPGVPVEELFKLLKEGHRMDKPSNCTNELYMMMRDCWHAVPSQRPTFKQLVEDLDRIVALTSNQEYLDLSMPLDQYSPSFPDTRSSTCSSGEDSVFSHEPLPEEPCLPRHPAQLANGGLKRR

- fold less avidity than bFGF [1]: 4 fold
- Kd [2]: 0.32 nM
- Kd [3]: 0.08 nM
B1: human recombinant kFGF (ligand, UniProt P08620 31-206, looked up)
chain: APTAPNGTLEAELERRWESLVALSLARLPVAAQPKEAAVQSGAGDYLLGIKRLRRLYCNVGIGFHLQALPDGRIGGAHADTRDSLLELSPVERGVVSIFGVASRFFVAMSSKGKLYGSPFFTDECTFKEILLPNNYNAYESYKYPGMFIALSKNGKTKKGNRVSPTMKVTHFLPRL
modifications: radioiodinated (125I) by Enzymobeads
notes: also called hst/kFGF

- Kd [4]: 0.04 to 0.1 nM
- background counts with 100 fold molar excess of either ligand, % of total cpm [5]: < 10%
- Kd [6]: 0.024 nM
- Kd [7]: 0.047 nM
- background counts with 100 fold molar excess of either ligand, % of total cpm [8]: < 10%
B2: bovine derived acidic fibroblast growth factor (ligand, UniProt P03968 16-155, looked up)
chain: FNLPLGNYKKPKLLYCSNGGYFLRILPDGTVDGTKDRSDQHIQLQLCAESIGEVYIKSTETGQFLAMDTDGLLYGSQTPNEECLFLERLEENHYNTYISKKHAEKHWFVGLKKNGRSKLGPRTHFGQKAILFLPLPVSSD
modifications: radioiodinated (125I) by Enzymobeads where used as labelled ligand
notes: Purified from a bovine source; also called aFGF; acidic FGF
